experiment: soluble on expression in E. coli; label from the status in PepcDB or PDB records

Soluble on expression in E. coli, not soluble:
MGSDKIHHHHHHMIEQLIQQAQPYWQQYIEHEFVQQLAKGTLPKACFQHYLKQDYLYLFHYSRAFALGVFKAKNFAEMETPRKTLEILCQEIQLHLNYCREWGISEQEIFTTQESAACIAYTRYLLDCGMTGSLAELYAAVTPCALGYAQVARYITQHYPRLPNNPYQTWIDTYASEEFQQAAQETVDFLTALCKPLNPSQLAEIQQIFTTATRMEIAFWQMGLDLA
MGSDKIHHHHHHMIERVINNIEKVIKGKREAIEVVVAALLAKGHVLMEDVPGVGKTMLARALALSLGVDFRRVQFTPDLLPTDLTGLYIYDRKKEDFVFKKGPVFTDVLLADEINRATPRTQSALLEAMAEGQVTVDGVTHRLSERFFVIATQNPIEYEGTFPLPEAQLDRFMICVKMGYPDEEAEIQMLTSQEKEHPISQLEPVMNPDELSELQKKVRNVFVSDEVKKYIVDIASATRNHPSLLLGMSPRGSIALMHFSMALAFMDGRDFTLPDDVKRAAVYVIPHRVIQSAESKLKREKKEDIVREILDRVKVVK
MGSDKIHHHHHHMIFSMSSLHDMRFICLRTAPLKNSAYLLSALLIIACQPTSPTEALTSENNEMVDMPLISADSVTITPDHILSIKPTRYQPSLGLQGRIDSIKQINLVAGQPLTVEQVLVSENQWVKKGTPLLTVRRQEIFNKPTMSDDPATDVDASLNTTASNIDRASASDNTSQTSDLITLRARFSGRVENLSVQAGQKIEAQTALLKLSDATELHFISTLPIEAESQISVGQTVNFTAEDRVDKFTGQVSKVQALKQPIQLLVYVNVINNEVSRNQLAPGMQVTGRVDYGQIEVGTIVPKNALHNVDLTQIQVPPYKPLRSLTANIWIIGQDQRLTRQPIEVIEYDPLTKQYLIAGISSDSLICLANLPIESKGKKVVVS
MGSDKIHHHHHHMIHEQDVQKLLNYITSHFGVDPERWFHPEGYQSIALAILDSIYSTGNRYTGVLNLVNRYCGLRANEGSHPEADTATDLIETFYRWGGVDEFVLKTNNRWRTSSKIHAPYKAYAALEAAKVLAGHSIESISDVVGRFDSRESREHSDIAREWLMITGQSSALTWSYFLMLVGVPGVKADRMIVRFVTHVLERPKEISRHEASRLIEEVADIMCVNYIYLDHTIWRFQSGRPYLQEDSSPFE
MGSDKIHHHHHHMIIEHARDMLKRERLFFDKMQAHIGEVNGTISIGCSSLIGQTLLPEVLSLYNAQFPNVEIQVQVGSTEQIKANHRDYHVMITRGNKVMNLANTHLFNDDHYFIFPKNRRDDVTKLPFIEFQADPIYINQIKQWYNDNLEQDYHATITVDQVATCKEMLISGVGVTILPEIMMKNISKEQFEFEKVEIDNEPLIRSTFMSYDPSMLQLPQVDSFVNLMASFVEQPKA
MGSDKIHHHHHHMIIGMSIARMFSRCTPIPNLSVRYNLDLYHLEFPIMAFIRQEDFIDSIHQALQYIACYHSPDFLAAMHDAWQREPSPAARDAIGQILINSYLCAQGQRPLCQDTGIVVAFVSVGMNVQWQASMSLQEMVDEGVRRAYLDPDNRLRASIVRDPAGKRLNTRDNTPSVVHVDMVPGDTVEIHIAAKGGGSENKSKLAMLEPSDDLIEWVLKTVPEMGAGWCPPGVLGIGIGGTAEKAVLLAKQSLFAPIDIQALRARGPQTRAEELRLEIYEKVNRLGIGAQGLGGLTTVLDVKILEAPTHATSLPVAIIPNCAATRHVHFTLDGTGPARLPAPRLEDWPRVALDASTPMRRVDLGKVTREDVISWQPGEKLLLSGKLLTGRDAAHKRIVDLIARGEPMPEGLDFTNRFIYYVGPVDPVGDEIIGPAGPTTATRMDRFTETMLTQTGLLGMIGKAERGEATVQSIKRHQSVYLIAIGGAAYLISQAIKASRIVAFADLGMEAIYEFTVEDMPVTVAVDSRGHAVHDTGPAEWRPRIANIPIFSE
MGSDKIHHHHHHMIIIELNKRQEHIIQIVKDHGPITGESIAAQLGLTRATLRPDLAILTMAGYLEARPRVGYFYTGKTGGQLLSEAVKKIKVQDYQSRPVVIDKNVSVYDAICTMFLEDVGTLFVVDQSTLLVGVVSRKDLLRASLGKQDLTSLPVNIIMTRMPNIAMCRREDSLYDIAMELIERQIDAMPVVKDTKQGLEVVGRITKTNITRAFVNLVNNE
MGSDKIHHHHHHMIINNVNMVLSQEIIHGSLEVRNGVIHHINDRPSRHPGALDGEQAWLLPGLVELHTDNLDKCFTPRPGVNWPSEAAMRNHDALIISSGITTVLDAVAVGDVRDGGHRLENLRRMTDAVLYSQQHGTNRADHHLHLRCELPHQDTFPLFEQLADIPLVALASLMDHSPGQRQFSSQEKYHQYYKGKYHLNDEQMAAFEEEQLAGSRRWSQPNREAIVRLCHEKGITLASHDDATSEHITESHQHRVAIAEFPTTEIAAQQAHGVGMNVLMGAPNVICGGSHSGNVSAHHLATLGVLHILSSDYYPASLLEAAFMIAEDERNDYDLPRAIALVSNNPAQALKFDDRGCIEEGRRADLLLVKRHAPQMKLMRVWRQGVRVF
MGSDKIHHHHHHMIKITQVRDGGNHVTQSTLTLDAWVERMKEEVKTCPVTMFRSQLRHVLPGDHCEAADKLPKMMPAAEFRKTEGGQCMKAYNGLVELTVGPLAGRAEVEQVKREAWKLPQTRCAFMGASGHSVKILVAFTRPDNTLPLTRAEAEAFHAHAYIMAVKCYQPQLSFDIRPKEPFLEQYSRLSYDPDVLYRPDSVQFYLSQPMGMPDEMALHTEPAVSGQRPLERALGSYETADALSMLFEAALRQAYIDLDKPDPADEKSSYSWDTLLSQLALNCFRSGIPEEAVVSRARFRHFVRKPLELVRQVVRNVYSRRQDFGSKCALSREQQLSVLIAEFMKRRYEFRFNVQTGEAEFRERHSFCFRFQPVDKRALNSIALDAQAEGIPLWDRDISRYVYSNRVPVYNPLEDFLFNLPEWDGRDRIRPLAQTVPCDNPHWPELFHRWFLNMVAHWRGMDKRYANSVSPLLVGAQGTRKSTLFDFLKLYLA
MGSDKIHHHHHHMIKMRIKPLEEYRIGLRQSSGIVIENVDVISAFPSPTTILGIIGAMKNAKPSQLSGIDDLREAYTSLTGNNTLSGDCDSSDNPLIWGPLIKEKDNKIYTPLFFNKLILDPIEYVKTSLNENVKVQSESLVKEIGIQIRRMNQMNRGSRNTIHLFYQKFFGSNYELEYCINIDDLKKLVKENVVALGGENRYARVRIDNGNCNFGNGNYAILLQPLLFESDSEYFVRLDNVKGLGCIDEIYGVLVEKGNKIDFNNFKVKVVYYALGYGNERRPMLQALPPGTVIKVKETCNNAKALGLLSELGFGAIYRVDPGNR
MGSDKIHHHHHHMIKVAAAGGGTGGHLYPLLAILETLAKRVDVKVLFFAVKGKIDERVVRKDHPEFETVSIDVRGLLRPLHHPKNLWRTLKIGIATIEVKKHLKRFKPDLVVLTGGYISGVVGLAAKDLGIPIFVHEQNVVPGLAVKVLSQYAKKVFVSFERTRDYLREWQDKIVVTGCPVRETEKEAPLKDFVLVLGGSLGSEAINELMEKVYPELQETQFVHSTGSDDWTERLSVFPNVTALTYIDPMGAYWKKAIASISRAGASTIAEMMYYGVPGILIPWESSAESHQLENALEAERLGYAIVIRENEASPRKIIESIDKVVKKGKIEKMKENPASKISKEILGEIM
MGSDKIHHHHHHMILLVGGEKGGSGKSCLAQNIAVHISQKHDANVLMVDCDPQRTTSDWIQARNNDPSLKAINCIQLYGKIRNDLLSLNDRFDYVIVDCGGQDNLAMRAAMSVATYVVIPLRPKRRDLKTLPHMEDMLSTCKMVNPKMIAAIVITQCPALPSQGKRILEAKEVVESFGLRALNSVTFSRNIYDDSEESGSSVLEIDPSGKAADEIRAIADELFAIPPENSYEFN
MGSDKIHHHHHHMILNSRTIDDAKFFDKPILLFFTDENCKDCDTIYSKLQDSTIFSKYIGKKVNALEYIHYTIRLTRGMIPTITILSPTLDLLAVIESKDLKFIENKLRELLDEYKRRIVKGIKLEGYTPDPIEPTPSIIYETINKVIGGYEADTRMIEVYLTYTNVYKEYLKAKDKIKCSDDVARYLLEGKGEIKIDEKSSANVSMLVNYGVTSVQKLLDFIDINSGEVYRSKKKETKGILLDEALAGNALVSEYERTINEEYLSLAIKVADYIKNNLQHERGFRDIKEIDNITKVPYLEPISNSEASIFFSRLWNITGDETYKNLALKGLGSALGGALNNPKVIARAAIAYLKLFDSIKANRYLNIIDARITVVKNNGCNDSMLYYSGQCYSKIDEIQPTAF
